Results: article PMC9411207, “Designed peptides as nanomolar cross-amyloid inhibitors acting via supramolecular nanofiber co-assembly” (Nature Communications, 2022)
Square brackets hold non-standard residues; d marks the D form. Ends that are not written are not given here. NMeF = CN[C@@H](Cc1ccccc1)C(=O)O; NMeL = CN[C@@H](CC(C)C)C(=O)O; NMeV = CN[C@H](C(=O)O)C(C)C; Nle = CCCC[C@H](N)C(=O)O

Key:
[1] = target: T1, Fluorescein-isothiocyanate-β-Ala-labeled Aβ42 (UniProt P05067 672-713, fluorescein-isothiocyanate-β-Ala on the N-terminus); assay: other fluorescence titration; N-terminal fluorescently-labeled peptide (5 nM) titrated with unlabeled peptide; 10 mM sodium phosphate buffer, pH 7.4 (1% HFIP); measured within 2–5 min after preparation; apparent KDs from 1/1 binding models; conditions: both partners purified
T1 construct: amyloid-β peptide Aβ42, the 42-residue cut product of the amyloid precursor protein; also called FITC-Aβ42; N-terminal FITC-labeled Aβ42; source: bought: Bachem

[2] = target: T2, N-terminal fluorescein-labeled IAPP (human, UniProt P10997 34-70, fluorescein on the N-terminus; subjected to air-oxidation); assay: as above; conditions: both partners purified
T2 construct: also called Fluos-IAPP; source: synthetic peptide (Fmoc-SPPS, air-oxidation, RP-HPLC purified)
T2 chain (looked up): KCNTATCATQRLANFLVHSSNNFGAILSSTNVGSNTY

[3] = target: the molecule itself; assay: SEC; Superdex 75 10/300 GL, 50 mM sodium phosphate pH 7.4, 100 mM NaCl; IAPP (16.5 µM) alone or with Nle3-VF (1/2) incubated in ThT buffer, 0 h and 96 h

T1 sequence (P05067 672-713): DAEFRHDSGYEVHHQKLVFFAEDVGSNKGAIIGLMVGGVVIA

Binder | Kd [1] | Kd [2] | stoichiometry N [3]
QKL[NMeV]F[NMeF]AED[Nle][Nle][Nle]NKGAIIGL[Nle]VGGVV [Nle3-VF] | 14.5 nM | 69.5 nM | 2
QK[NMeL]V[NMeF]FAEDFFFNKGAIIGL[Nle]VGGVV [F3-LF] | 431 nM | 37.6 nM | –
QKL[NMeV]F[NMeF]AEDFFFNKGAIIGL[Nle]VGGVV [F3-VF] | 161 nM | 15 nM | –
QK[NMeL]V[NMeF]FAEDLLLNKGAIIGL[Nle]VGGVV [L3-LF] | 2.6 nM | 143 nM | –
QK[NMeL]V[NMeF]FAED[Nle][Nle][Nle]NKGAIIGL[Nle]VGGVV [Nle3-LF] | 11.1 nM | 55.4 nM | –
QKL[NMeV]F[NMeF]AEDLLLNKGAIIGL[Nle]VGGVV [L3-VF] | 38 nM | 77.3 nM | –
